Among the data in paper PMC10250233 are Kd values, retold here.

Values joined by “and” are separate entries in the source; they are usually repeats but may differ in a detail not shown here. Identical values can stand only once. A value given as a limit tells only on which side of the number the result lay.

Holding throughout (assay): fluorescence anisotropy
Series [1] deals with CST (CTC1-STN1-TEN1) (human) (UniProt Q2NKJ3+Q9H668+Q86WV5). Particulars: FA: 200 mM NaCl, KCl or LiCl, 20 mM HEPES pH 7.4, 1 mM DTT, 22-25 C, 375 or 750 pM oligo, Kd,app +/- SEM, EMSA: 20 mM HEPES pH 7.4, 200 mM KCl, 1 nM 32P oligo.
CST (CTC1-STN1-TEN1) (human), sequence (Q2NKJ3 whole entry, chain 1 of 3): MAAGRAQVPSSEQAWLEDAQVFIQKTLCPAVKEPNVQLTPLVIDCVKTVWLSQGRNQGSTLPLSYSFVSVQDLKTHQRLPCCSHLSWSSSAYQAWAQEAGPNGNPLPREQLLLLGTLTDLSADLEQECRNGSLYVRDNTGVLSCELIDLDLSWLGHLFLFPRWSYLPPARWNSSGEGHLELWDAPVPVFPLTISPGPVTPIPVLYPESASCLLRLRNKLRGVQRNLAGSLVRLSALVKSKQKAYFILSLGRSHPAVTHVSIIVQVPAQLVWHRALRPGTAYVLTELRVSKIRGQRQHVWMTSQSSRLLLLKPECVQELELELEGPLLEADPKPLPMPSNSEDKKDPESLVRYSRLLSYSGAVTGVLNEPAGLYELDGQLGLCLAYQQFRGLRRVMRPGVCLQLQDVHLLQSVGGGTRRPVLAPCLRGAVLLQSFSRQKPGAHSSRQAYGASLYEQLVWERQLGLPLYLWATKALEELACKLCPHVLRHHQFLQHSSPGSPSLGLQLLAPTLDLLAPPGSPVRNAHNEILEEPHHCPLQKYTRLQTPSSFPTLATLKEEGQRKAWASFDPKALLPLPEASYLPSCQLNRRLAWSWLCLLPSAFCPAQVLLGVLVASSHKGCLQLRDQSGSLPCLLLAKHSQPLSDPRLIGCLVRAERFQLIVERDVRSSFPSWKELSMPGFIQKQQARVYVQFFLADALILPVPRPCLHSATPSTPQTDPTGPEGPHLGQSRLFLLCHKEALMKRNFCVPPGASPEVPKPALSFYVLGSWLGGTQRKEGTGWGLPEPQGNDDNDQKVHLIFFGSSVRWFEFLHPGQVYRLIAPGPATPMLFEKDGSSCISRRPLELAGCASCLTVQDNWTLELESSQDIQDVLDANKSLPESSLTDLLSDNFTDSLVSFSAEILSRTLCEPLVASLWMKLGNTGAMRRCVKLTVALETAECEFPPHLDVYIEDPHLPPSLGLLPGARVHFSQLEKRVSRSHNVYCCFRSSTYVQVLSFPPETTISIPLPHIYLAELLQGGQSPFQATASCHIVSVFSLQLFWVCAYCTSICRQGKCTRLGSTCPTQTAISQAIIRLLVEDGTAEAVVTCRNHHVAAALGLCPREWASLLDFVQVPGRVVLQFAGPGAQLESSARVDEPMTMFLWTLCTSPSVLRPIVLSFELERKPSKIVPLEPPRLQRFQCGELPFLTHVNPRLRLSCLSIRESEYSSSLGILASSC
CST (CTC1-STN1-TEN1) (human), sequence (Q9H668 whole entry, chain 2 of 3): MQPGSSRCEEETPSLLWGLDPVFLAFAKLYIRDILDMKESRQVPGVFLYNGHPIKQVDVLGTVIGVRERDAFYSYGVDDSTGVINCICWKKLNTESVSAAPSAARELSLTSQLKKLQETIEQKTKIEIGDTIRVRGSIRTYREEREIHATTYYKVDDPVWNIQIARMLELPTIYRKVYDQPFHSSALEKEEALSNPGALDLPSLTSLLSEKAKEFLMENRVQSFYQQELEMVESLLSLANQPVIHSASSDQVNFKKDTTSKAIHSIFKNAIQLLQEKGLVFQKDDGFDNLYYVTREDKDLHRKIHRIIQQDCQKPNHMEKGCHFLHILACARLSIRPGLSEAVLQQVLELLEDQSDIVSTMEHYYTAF
CST (CTC1-STN1-TEN1) (human), sequence (Q86WV5 whole entry, chain 3 of 3): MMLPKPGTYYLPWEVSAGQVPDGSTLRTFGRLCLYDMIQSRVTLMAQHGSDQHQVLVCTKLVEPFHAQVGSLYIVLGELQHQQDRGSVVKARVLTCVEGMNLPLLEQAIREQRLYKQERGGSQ
In the next series the test system is RPA Aro1 (human). Particulars: FA: 200 mM NaCl, KCl or LiCl, 20 mM HEPES pH 7.4, 1 mM DTT, 22-25 C, 375 or 750 pM oligo, Kd,app +/- SEM; EMSA: 20 mM HEPES pH 7.4, 200 mM KCl, 1 nM 32P oligo.
In a further series the test system is RPA Aro3 (human). The conditions noted are these: FA: 200 mM NaCl, KCl or LiCl, 20 mM HEPES pH 7.4, 1 mM DTT, 22-25 C, 375 or 750 pM oligo, Kd,app +/- SEM; EMSA: 20 mM HEPES pH 7.4, 200 mM KCl, 1 nM 32P oligo.
The test system of a further series is RPA Aro4 (human). The conditions noted are these: FA: 200 mM NaCl, KCl or LiCl, 20 mM HEPES pH 7.4, 1 mM DTT, 22-25 C, 375 or 750 pM oligo, Kd,app +/- SEM; EMSA: 20 mM HEPES pH 7.4, 200 mM KCl, 1 nM 32P oligo.
The subject of another series is RPA AroA (human). The conditions noted are these: FA: 200 mM NaCl, KCl or LiCl, 20 mM HEPES pH 7.4, 1 mM DTT, 22-25 C, 375 or 750 pM oligo, Kd,app +/- SEM; EMSA: 20 mM HEPES pH 7.4, 200 mM KCl, 1 nM 32P oligo.
The subject of a further series is RPA AroB (human). The conditions noted are these: FA: 200 mM NaCl, KCl or LiCl, 20 mM HEPES pH 7.4, 1 mM DTT, 22-25 C, 375 or 750 pM oligo, Kd,app +/- SEM; EMSA: 20 mM HEPES pH 7.4, 200 mM KCl, 1 nM 32P oligo.
The subject of a further series is RPA AroC (human). The conditions noted are these: FA: 200 mM NaCl, KCl or LiCl, 20 mM HEPES pH 7.4, 1 mM DTT, 22-25 C, 375 or 750 pM oligo, Kd,app +/- SEM; EMSA: 20 mM HEPES pH 7.4, 200 mM KCl, 1 nM 32P oligo.
For series [2], the target named is RPA WT (RPA70-RPA32-RPA14) (human) (UniProt P27694+P15927+P35244). Particulars: FA: 200 mM NaCl, KCl or LiCl, 20 mM HEPES pH 7.4, 1 mM DTT, 22-25 C, 375 or 750 pM oligo, Kd,app +/- SEM; EMSA: 20 mM HEPES pH 7.4, 200 mM KCl, 1 nM 32P oligo.
RPA WT (RPA70-RPA32-RPA14) (human), sequence (P27694 whole entry, chain 1 of 3): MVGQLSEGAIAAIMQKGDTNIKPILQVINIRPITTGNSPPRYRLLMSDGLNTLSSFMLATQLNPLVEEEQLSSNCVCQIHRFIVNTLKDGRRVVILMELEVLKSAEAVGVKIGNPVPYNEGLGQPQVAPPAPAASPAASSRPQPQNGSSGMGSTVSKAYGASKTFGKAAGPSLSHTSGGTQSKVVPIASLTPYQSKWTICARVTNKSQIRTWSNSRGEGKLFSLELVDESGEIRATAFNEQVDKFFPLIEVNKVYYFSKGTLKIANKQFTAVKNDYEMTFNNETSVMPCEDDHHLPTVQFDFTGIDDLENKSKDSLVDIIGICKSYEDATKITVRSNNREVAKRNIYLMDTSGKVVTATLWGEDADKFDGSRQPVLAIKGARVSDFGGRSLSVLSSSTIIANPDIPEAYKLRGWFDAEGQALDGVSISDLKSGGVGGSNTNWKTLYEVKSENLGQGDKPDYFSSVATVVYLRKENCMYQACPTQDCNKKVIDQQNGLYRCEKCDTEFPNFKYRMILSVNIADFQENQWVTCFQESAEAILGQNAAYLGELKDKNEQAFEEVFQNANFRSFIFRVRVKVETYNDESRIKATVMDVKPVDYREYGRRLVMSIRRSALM
RPA WT (RPA70-RPA32-RPA14) (human), sequence (P15927 whole entry, chain 2 of 3): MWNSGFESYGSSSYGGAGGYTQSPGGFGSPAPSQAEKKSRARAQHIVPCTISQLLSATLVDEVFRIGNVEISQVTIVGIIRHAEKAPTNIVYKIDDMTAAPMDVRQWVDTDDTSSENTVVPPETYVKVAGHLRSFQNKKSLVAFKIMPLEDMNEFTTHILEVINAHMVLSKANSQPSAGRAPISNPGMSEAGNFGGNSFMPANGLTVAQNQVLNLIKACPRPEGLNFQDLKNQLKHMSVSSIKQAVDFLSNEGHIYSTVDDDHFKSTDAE
RPA WT (RPA70-RPA32-RPA14) (human), sequence (P35244 whole entry, chain 3 of 3): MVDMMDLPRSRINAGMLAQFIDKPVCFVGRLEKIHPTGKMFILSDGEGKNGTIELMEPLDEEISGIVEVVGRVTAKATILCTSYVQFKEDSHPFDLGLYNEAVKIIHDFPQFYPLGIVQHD

On to Tel18, for which the Kd was 6.7 nM in series [1] (200 mM LiCl); 7.7 nM and 9.3 nM in series [1]; 4.7 nM and 2.5 nM and 5.6 nM in the series on RPA Aro1 (human); 0.24 nM and 0.56 nM and 0.65 nM in the series on RPA Aro3 (human); 3.5 nM and 9.1 nM and 5.1 nM in the series on RPA Aro4 (human); 0.79 nM and 0.34 nM and 0.36 nM with RPA AroA (human). Also, the Kd in the series on RPA AroB (human) is 0.5 nM and 0.66 nM and 0.45 nM; in the series with RPA AroC (human), 0.59 nM and 0.26 nM and 0.49 nM; in series [2] it was 0.73 nM and 0.5 nM and 0.66 nM.

With Tel22, the Kd in series [1] (200 mM KCl, printed >=, incomplete curve) is greater than 340 nM; in series [1] (200 mM LiCl), 6.7 nM; in series [1], 106 nM; in the series with RPA AroA (human) it was 2.4 nM and 2.5 nM and 0.36 nM; in series [2], 1.23 nM and 1.99 nM and 0.35 nM.

Take Tel30: the Kd is 5.2 nM in series [1] (200 mM LiCl); 67 nM and 112 nM in series [1]; 0.48 nM and 0.77 nM and 0.29 nM in the series with RPA AroA (human); 1.07 nM and 1.9 nM and 0.36 nM in the series with RPA AroB (human); 0.62 nM and 1.62 nM and 0.28 nM in the series on RPA AroC (human); 0.96 nM and 0.81 nM and 0.32 nM in series [2].

Tel40: the Kd in series [1] (200 mM LiCl) is 0.73 nM; in series [1] it was 0.74 nM and 1.1 nM; in series [2] it was 1.3 nM and 1.1 nM and 0.9 nM.

Consider Tel60, for which the Kd in series [1] (200 mM LiCl) is 1.2 nM; in series [1], 10.6 nM and 9 nM; in series [2] it was 0.79 nM and 0.69 nM and 0.8 nM.
